Key:
Assay in all cases: two-hybrid; LexA-Cdc1 bait (pBTM116 or pBTM116BN) with Gal4-Pol3 prey and co-expressed c-myc-tagged Cdc27 (pAA-Cdc27) in S. cerevisiae CTY10-5d; ONPG liquid culture beta-galactosidase assay, mean of triplicates, as percent of wild-type Cdc1
Conditions in all cases: partners not purified
Cdc1-A1 = molecular target: T1, Cdc1-A1 (Schizosaccharomyces pombe, UniProt P87324 1-462, Pro292Ala)
T1 construct: Cdc1, S. pombe, point mutant; source: yeast two-hybrid fusion, in S. cerevisiae CTY10-5d
T1 sequence (looked up): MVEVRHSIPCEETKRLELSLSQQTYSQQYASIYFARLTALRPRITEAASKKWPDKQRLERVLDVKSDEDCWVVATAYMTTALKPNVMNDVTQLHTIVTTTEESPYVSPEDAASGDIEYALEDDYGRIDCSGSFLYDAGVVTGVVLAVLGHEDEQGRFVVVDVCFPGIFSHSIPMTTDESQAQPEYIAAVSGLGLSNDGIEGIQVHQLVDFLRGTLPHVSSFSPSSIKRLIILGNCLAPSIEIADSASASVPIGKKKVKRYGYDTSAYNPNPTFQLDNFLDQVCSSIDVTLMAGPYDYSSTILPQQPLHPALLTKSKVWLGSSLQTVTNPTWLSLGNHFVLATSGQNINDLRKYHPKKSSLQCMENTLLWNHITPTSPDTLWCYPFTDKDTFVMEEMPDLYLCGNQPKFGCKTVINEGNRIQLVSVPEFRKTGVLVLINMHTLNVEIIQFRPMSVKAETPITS

Cdc1-E9 = molecular target: T2, Cdc1-E9 (Schizosaccharomyces pombe, UniProt P87324 1-462, Tyr-GlyGlyTyrProTyr-Gly)
T2 construct: Cdc1, S. pombe, with a pentapeptide inserted after residue 124; source: yeast two-hybrid fusion, in S. cerevisiae CTY10-5d
T2 sequence (looked up): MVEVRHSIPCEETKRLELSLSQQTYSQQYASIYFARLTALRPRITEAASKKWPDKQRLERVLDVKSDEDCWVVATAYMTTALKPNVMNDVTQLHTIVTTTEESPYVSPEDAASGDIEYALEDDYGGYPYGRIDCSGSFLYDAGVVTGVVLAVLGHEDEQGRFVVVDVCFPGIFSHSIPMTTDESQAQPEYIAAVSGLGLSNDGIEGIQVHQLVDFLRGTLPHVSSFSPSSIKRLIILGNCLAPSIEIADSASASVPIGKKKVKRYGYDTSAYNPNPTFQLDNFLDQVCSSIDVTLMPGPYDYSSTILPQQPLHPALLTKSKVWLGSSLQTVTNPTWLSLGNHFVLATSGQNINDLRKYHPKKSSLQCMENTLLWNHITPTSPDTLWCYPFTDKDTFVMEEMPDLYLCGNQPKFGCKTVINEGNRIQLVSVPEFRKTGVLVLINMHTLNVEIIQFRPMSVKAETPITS

Cdc1-J15 = molecular target: T3, Cdc1-J15 (Schizosaccharomyces pombe, UniProt P87324 1-462, Gln-GlyValProLeuGln-Val)
T3 construct: Cdc1, S. pombe, with a pentapeptide inserted after residue 203; source: yeast two-hybrid fusion, in S. cerevisiae CTY10-5d
T3 sequence (looked up): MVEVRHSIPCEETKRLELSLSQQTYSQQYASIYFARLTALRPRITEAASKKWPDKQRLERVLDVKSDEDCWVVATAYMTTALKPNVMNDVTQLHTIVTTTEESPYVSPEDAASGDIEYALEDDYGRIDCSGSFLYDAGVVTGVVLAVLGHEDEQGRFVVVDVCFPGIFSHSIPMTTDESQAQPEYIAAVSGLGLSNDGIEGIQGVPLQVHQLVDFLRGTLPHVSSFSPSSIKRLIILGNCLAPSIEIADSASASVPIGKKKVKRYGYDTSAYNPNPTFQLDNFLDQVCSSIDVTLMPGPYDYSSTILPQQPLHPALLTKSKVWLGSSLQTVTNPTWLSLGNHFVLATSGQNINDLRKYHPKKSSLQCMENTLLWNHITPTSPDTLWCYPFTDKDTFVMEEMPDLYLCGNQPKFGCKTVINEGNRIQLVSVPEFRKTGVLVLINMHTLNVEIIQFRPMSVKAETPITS

Cdc1-A9 = molecular target: T4, Cdc1-A9 (Schizosaccharomyces pombe, UniProt P87324 1-462, Pro292Ala | Gly293Ala)
T4 construct: Cdc1, S. pombe, double point mutant (A1 and A2 combined); source: yeast two-hybrid fusion, in S. cerevisiae CTY10-5d
T4 sequence (looked up): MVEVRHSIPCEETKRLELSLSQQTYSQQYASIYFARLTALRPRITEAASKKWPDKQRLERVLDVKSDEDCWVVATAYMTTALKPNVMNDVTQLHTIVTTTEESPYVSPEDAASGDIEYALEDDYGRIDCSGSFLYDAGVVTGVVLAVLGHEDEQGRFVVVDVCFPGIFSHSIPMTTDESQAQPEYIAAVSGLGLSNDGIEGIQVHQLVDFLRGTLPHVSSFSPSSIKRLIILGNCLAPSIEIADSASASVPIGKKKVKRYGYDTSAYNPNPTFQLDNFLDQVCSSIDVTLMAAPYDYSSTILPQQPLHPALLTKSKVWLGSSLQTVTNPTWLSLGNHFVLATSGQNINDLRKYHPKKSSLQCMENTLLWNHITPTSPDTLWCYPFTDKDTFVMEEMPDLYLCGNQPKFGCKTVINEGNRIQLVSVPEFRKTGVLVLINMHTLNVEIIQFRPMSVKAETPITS

B1: Pol3 (fission yeast DNA polymerase delta catalytic subunit) (natural protein, Schizosaccharomyces pombe, UniProt P30316 1-1086, looked up)
chain: MTDRSSNEGVVLNKENYPFPRRNGSIHGEITDVKRRRLSERNGYGDKKGSSSKEKTSSFEDELAEYASQLDQDEIKSSKDQQWQRPALPAINPEKDDIYFQQIDSEEFTEGSVPSIRLFGVTDNGNSILVHVVGFLPYFYVKAPVGFRPEMLERFTQDLDATCNGGVIDHCIIEMKENLYGFQGNEKSPFIKIFTTNPRILSRARNVFERGEFNFEELFPVGVGVTTFESNTQYLLRFMIDCDVVGMNWIHLPASKYQFRYQNRVSNCQIEAWINYKDLISLPAEGQWSKMAPLRIMSFDIECAGRKGVFPDPSIDPVIQIASIVTQYGDSTPFVRNVFCVDTCSQIVGTQVYEFQNQAEMLSSWSKFVRDVDPDVLIGYNICNFDIPYLLDRAKSLRIHNFPLLGRIHNFFSVAKETTFSSKAYGTRESKTTSIPGRLQLDMLQVMQRDFKLRSYSLNAVCSQFLGEQKEDVHYSIITDLQNGTADSRRRLAIYCLKDAYLPQRLMDKLMCFVNYTEMARVTGVPFNFLLARGQQIKVISQLFRKALQHDLVVPNIRVNGTDEQYEGATVIEPIKGYYDTPIATLDFSSLYPSIMQAHNLCYTTLLDSNTAELLKLKQDVDYSVTPNGDYFVKPHVRKGLLPIILADLLNARKKAKADLKKETDPFKKAVLDGRQLALKVSANSVYGFTGATNGRLPCLAISSSVTSYGRQMIEKTKDVVEKRYRIENGYSHDAVVIYGDTDSVMVKFGVKTLPEAMKLGEEAANYVSDQFPNPIKLEFEKVYFPYLLISKKRYAGLFWTRTDTYDKMDSKGIETVRRDNCPLVSYVIDTALRKMLIDQDVEGAQLFTKKVISDLLQNKIDMSQLVITKALSKTDYAAKMAHVELAERMRKRDAGSAPAIGDRVAYVIIKGAQGDQFYMRSEDPIYVLENNIPIDAKYYLENQLSKPLLRIFEPILGEKASSLLHGDHTRTISMAAPSVGGIMKFAVKVETCLGCKAPIKKGKTALCENCLNRSAELYQRQVAQVNDLEVRFARLWTQCQRCQGSMHQDVICTSRDCPIFYMRIAEHKKLQQSVDLLKRFDEMSW
notes: DNA polymerase delta catalytic subunit Pol3, S. pombe; prey plasmid named pACT-Pol3 in the results and pGAD2F-Pol3 in the methods; also called Gal4-Pol3; pACT-Pol3; source: yeast two-hybrid fusion, in S. cerevisiae CTY10-5d
**Q.** How did the “two-hybrid beta-galactosidase activity, % of wild-type Cdc1” value (Cdc1-A1) turn out when B1 was run?
**A.** 39%

**Q.** And the “two-hybrid beta-galactosidase activity, % of wild-type Cdc1” value (Cdc1-E9)?
**A.** 24%

**Q.** What about the “two-hybrid beta-galactosidase activity, % of wild-type Cdc1” value (Cdc1-J15) of the same binder?
**A.** 1%

**Q.** And the “two-hybrid beta-galactosidase activity, % of wild-type Cdc1” value (Cdc1-A9)?
**A.** < 1%

— article PMC2734569, “Functional mapping of the fission yeast DNA polymerase δ B-subunit Cdc1 by site-directed and random pentapeptide insertion mutagenesis” (BMC Molecular Biology, 2009)
